B1: EPHB3 (protein)
chain: CLRKQRHGSDSEYTEKLQQYIAPGMKVYIDPFTYEDPNEAVREFAKEIDVSCVKIEEVIGAGEFGEVCRGRLKQPGRREVFVAIKTLKVGYTERQRRDFLSEASIMGQFDHPNIIRLEGVVTKSRPVMILTEFMENCALDSFLRLNDGQFTVIQLVGMLRGIAAGMKYLSEMNYVHRDLAARNILVNSNLVCKVSDFGLSRFLEDDPSDPTYTSSLGGKIPIRWTAPEAIAYRKFTSASDVWSYGIVMWEVMSYGERPYWDMSNQDVINAVEQDYRLPPPMDCPTALHQLMLDCWVRDRNLRPKFSQIVNTLDKLIRNAASLKVIASAQSGMSQPLLDRTVPDYTTFTTVGDWLDAIKMGRYKESFVSAGFASFDLVAQMTAEDLLRIGVTLAGHQKKILSSIQDMRLQMNQTLPVQV
modifications: left off: a dimerising Fc or GST
B2: RPS6KA1(RSK1) (protein)
chain: MPLAQLKEPWPLMELVPLDPENGQTSGEEAGLQPSKDEGVLKEISITHHVKAGSEKADPSHFELLKVLGQGSFGKVFLVRKVTRPDSGHLYAMKVLKKATLKVRDRVRTKMERDILADVNHPFVVKLHYAFQTEGKLYLILDFLRGGDLFTRLSKEVMFTEEDVKFYLAELALGLDHLHSLGIIYRDLKPENILLDEEGHIKLTDFGLSKEAIDHEKKAYSFCGTVEYMAPEVVNRQGHSHSADWWSYGVLMFEMLTGSLPFQGKDRKETMTLILKAKLGMPQFLSTEAQSLLRALFKRNPANRLGSGPDGAEEIKRHVFYSTIDWNKLYRREIKPPFKPAVAQPDDTFYFDTEFTSRTPKDSPGIPPSAGAHQLFRGFSFVATGLMEDDGKPRAPQAPLHSVVQQLHGKNLVFSDGYVVKETIGVGSYSECKRCVHKATNMEYAVKVIDKSKRDPSEEIEILLRYGQHPNIITLKDVYDDGKHVYLVTELMRGGELLDKILRQKFFSEREASFVLHTIGKTVEYLHSQGVVHRDLKPSNILYVDESGNPECLRICDFGFAKQLRAENGLLMTPCYTANFVAPEVLKRQGYDEGCDIWSLGILLYTMLAGYTPFANGPSDTPEEILTRIGSGKFTLSGGNWNTVSETAKDLVSKMLHVDPHQRLTAKQVLQHPWVTQKDKLPQSQLSHQDLQLVKGAMAATYSALNSSKPTPQLKPIESSILAQRRVRKLPSTTL
modifications: left off: small tags and cut ends
B3: PRKCN(PKD3) (protein)
chain: MSANNSPPSAQKSVLPTAIPAVLPAASPCSSPKTGLSARLSNGSFSAPSLTNSRGSVHTVSFLLQIGLTRESVTIEAQELSLSAVKDLVCSIVYQKFPECGFFGMYDKILLFRHDMNSENILQLITSADEIHEGDLVEVVLSALATVEDFQIRPHTLYVHSYKAPTFCDYCGEMLWGLVRQGLKCEGCGLNYHKRCAFKIPNNCSGVRKRRLSNVSLPGPGLSVPRPLQPEYVALPSEESHVHQEPSKRIPSWSGRPIWMEKMVMCRVKVPHTFAVHSYTRPTICQYCKRLLKGLFRQGMQCKDCKFNCHKRCASKVPRDCLGEVTFNGEPSSLGTDTDIPMDIDNNDINSDSSRGLDDTEEPSPPEDKMFFLDPSDLDVERDEEAVKTISPSTSNNIPLMRVVQSIKHTKRKSSTMVKEGWMVHYTSRDNLRKRHYWRLDSKCLTLFQNESGSKYYKEIPLSEILRISSPRDFTNISQGSNPHCFEIITDTMVYFVGENNGDSSHNPVLAATGVGLDVAQSWEKAIRQALMPVTPQASVCTSPGQGKDHKDLSTSISVSNCQIQENVDISTVYQIFADEVLGSGQFGIVYGGKHRKTGRDVAIKVIDKMRFPTKQESQLRNEVAILQNLHHPGIVNLECMFETPERVFVVMEKLHGDMLEMILSSEKSRLPERITKFMVTQILVALRNLHFKNIVHCDLKPENVLLASAEPFPQVKLCDFGFARIIGEKSFRRSVVGTPAYLAPEVLRSKGYNRSLDMWSVGVIIYVSLSGTFPFNEDEDINDQIQNAAFMYPPNPWREISGEAIDLINNLLQVKMRKRYSVDKSLSHPWLQDYQTWLDLREFETRIGERYITHESDDARWEIHAYTHNLVYPKHFIMAPNPDDMEEDP
modifications: left off: a dimerising Fc or GST
B4: ROCK2 (protein)
chain: MSRPPPTGKMPGAPETAPGDGAGASRQRKLEALIRDPRSPINVESLLDGLNSLVLDLDFPALRKNKNIDNFLNRYEKIVKKIRGLQMKAEDYDVVKVIGRGAFGEVQLVRHKASQKVYAMKLLSKFEMIKRSDSAFFWEERDIMAFANSPWVVQLFYAFQDDRYLYMVMEYMPGGDLVNLMSNYDVPEKWAKFYTAEVVLALDAIHSMGLIHRDVKPDNMLLDKHGHLKLADFGTCMKMDETGMVHCDTAVGTPDYISPEVLKSQGGDGFYGRECDWWSVGVFLYEMLVGDTPFYADSLVGTYSKIMDHKNSLCFPEDAEISKHAKNLICAFLTDREVRLGRNGVEEIRQHPFFKNDQWHWDNIRETAAPVVPELSSDIDSSNFDDIEDDKGDVETFPIPKAFVGNQLPFIGFTYYRENLLLSDSPSCRETDSIQSRKNEESQEIQKKLYTLEEHLSNEMQAKEELEQKCKSVNTRLEKTAKELEEEITLRKSVESALRQLEREKALLQHKNAEYQRKADHEADKKRNLENDVNSLKDQLEDLKKRNQNSQI
modifications: left off: a dimerising Fc or GST
B5: ROCK1 (protein)
chain: MSTGDSFETRFEKMDNLLRDPKSEVNSDCLLDGLDALVYDLDFPALRKNKNIDNFLSRYKDTINKIRDLRMKAEDYEVVKVIGRGAFGEVQLVRHKSTRKVYAMKLLSKFEMIKRSDSAFFWEERDIMAFANSPWVVQLFYAFQDDRYLYMVMEYMPGGDLVNLMSNYDVPEKWARFYTAEVVLALDAIHSMGFIHRDVKPDNMLLDKSGHLKLADFGTCMKMNKEGMVRCDTAVGTPDYISPEVLKSQGGDGYYGRECDWWSVGVFLYEMLVGDTPFYADSLVGTYSKIMNHKNSLTFPDDNDISKEAKNLICAFLTDREVRLGRNGVEEIKRHLFFKNDQWAWETLRDTVAPVVPDLSSDIDTSNFDDLEEDKGEEETFPIPKAFVGNQLPFVGFTYYSNRRYLSSANPNDNRTSSNADKSLQESLQKTIYKLEEQLHNEMQLKDEMEQKCRTSNIKLDKIMKELDEEGNQRRNLESTVSQIEKEKMLLQHRINEYQRKAEQENEKRRNVENEVSTLKDQLEDLKKVSQNSQL
modifications: left off: a dimerising Fc or GST
B6: PRKX (protein)
chain: MEAPGLAQAAAAESDSRKVAEETPDGAPALCPSPEALSPEPPVYSLQDFDTLATVGTGTFGRVHLVKEKTAKHFFALKVMSIPDVIRLKQEQHVHNEKSVLKEVSHPFLIRLFWTWHDERFLYMLMEYVPGGELFSYLRNRGRFSSTTGLFYSAEIICAIEYLHSKEIVYRDLKPENILLDRDGHIKLTDFGFAKKLVDRTWTLCGTPEYLAPEVIQSKGHGRAVDWWALGILIFEMLSGFPPFFDDNPFGIYQKILAGKIDFPRHLDFHVKDLIKKLLVVDRTRRLGNMKNGANDVKHHRWFRSVDWEAVPQRKLKPPIVPKIAGDGDTSNFETYPENDWDTAAPVPQKDLEIFKNF
modifications: left off: a dimerising Fc or GST

This is an account of results in US20090099029A1, “Methods and substrates for conducting assays” (Invitrogen Corporation, priority 2005, published 2009).

The data set concerns kinases of Table 6 on Myelin Basic Protein (MBP). Kind of data set: Kinase assay using MBP substrate, ProQ Diamond stain (Table 6). The format is biochemical. As to conditions: kinase printed on MBP-coated slide; 20 uM ATP, 30° C.; ProQ Diamond Microarray Stain; graded Strong/Weak/Negative. In a few lines: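 Bovine dephosphorylated MBP coated on aldehyde- or epoxy-glass slides, kinases printed on top; reaction buffer pH 7.5 with 4 mM MgCl2, 20 uM ATP, 5% DMSO, ± inhibitor, at 30° C. Phosphorylation detected by ProQ Diamond stain, 30 min in dark.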
For the molecule B1, the “MBP Kinase Activity” value is recorded as “Strong”.

As for B2, the “MBP Kinase Activity” value is “Strong”.

Regarding B3, the “MBP Kinase Activity” value is on record as “Weak”.

Consider B4, for which the “MBP Kinase Activity” value was “Strong”.

With B5, the “MBP Kinase Activity” value was “Strong”.

Consider B6, for which the “MBP Kinase Activity” value is “Negative”.
